Biological target: T1, Flag-RNF185 (wild type, full length human RNF185 with N-terminal Flag tag) (human, UniProt Q96GF1 2-192)
T1 construct: Expressed by transfection in HEK293T cells; co-immunoprecipitation from lysates; For the CFTR co-IP, cells expressing WT RNF185 were treated with MG132 for 5 hours; also called RNF185 WT; Flag-tagged RNF185
T1 sequence: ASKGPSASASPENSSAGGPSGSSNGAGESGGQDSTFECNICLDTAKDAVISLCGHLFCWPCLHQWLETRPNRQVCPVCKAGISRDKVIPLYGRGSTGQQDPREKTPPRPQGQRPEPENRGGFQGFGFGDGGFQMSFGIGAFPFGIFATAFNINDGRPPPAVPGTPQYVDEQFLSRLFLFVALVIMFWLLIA
Assay: Flag co-immunoprecipitation from HEK293T cell lysates

binding result: no binding
B1: Ubc7/UBE2G1 (enzyme, UniProt P62253 1-170, looked up)
chain: MTELQSALLLRRQLAELNKNPVEGFSAGLIDDNDLYRWEVLIIGPPDTLYEGGVFKAHLTFPKDYPLRPPKMKFITEIWHPNVDKNGDVCISILHEPGEDKYGYEKPEERWLPIHTVETIMISVISMLADPNGDSPANVDAAKEWREDRNGEFKRKVARCVRKSQETAFE
notes: the construct is not described
